Measurements reported in patent US20190330315A1 (IMAGO PHARMACEUTICALS, published 2019).
Where no end group is shown, it is not given here.

Molecular target: T1, Peptide 2: α-synuclein amino acids 108-117 (10 amino acids) PQEGILEDMP (human, also: biotin, position not given here)
T1 construct: Biotinylated peptide loaded on streptavidin biosensors
T1 peptide: PQEGILEDMP
Test: BLI (ForteBio Octet Red96), biotinylated peptide on streptavidin biosensors, IGP101 at multiple concentrations
Method: The binding of IGP101 to two biotinylated α-synuclein peptides (SEQ ID NO:10 and SEQ ID NO:11) was determined using the Streptavidin biosensors. Biotinylated peptides were loaded at 5 μg/ml for 700 seconds, 300 seconds for baseline recording and then IGP101 association and dissociation measured for 600 seconds each at multiple concentrations. Double reference sensors were employed in all testing to measure and subtract any observed background signal from nonspecific binding or system noise.
Analysis was performed with ForteBio Data Analysis Software (v8.2). After background subtraction, a 1:1 local kinetic model was fit to the observed association and dissociation curves. Overall KD, Kₒₙ, Koff, and R2 correlation coefficients were determined. Where possible, a global curve fit was also performed for multiple concentrations of the antibody/analyte.

- binding result: no binding
B1: IGP101 (antibody, V domains shown)
VH: EVQLVESGGGLVQPKGTLKLSCAASGFSFNTYAMNWVRQAPGKSLEWVARTLSKSNNYATYYADSVKDRFTISRDDSQSMLSLQMNNLKTEDTAMYYCVGAFAYWGQGTLVTVSA
VL: DIVMTQAAPSVPVTPGESVSISCRSSKSLLHSNGNTYLYWFLQRPGQSPQLLIYRMSNLASGVPDRFSGSGSGTAFTLRISRVEAEDVGVYYCMQHLEFPFTFGAGTKLELK
notes: Mouse monoclonal antibody from hybridoma ATCC PTA-9197; It was tested as whole mouse IgG, captured on anti-mouse IgG biosensors; The constant regions and isotype are not explicitly stated; a g2b constant region primer is mentioned only in illustrative cloning methods; also called IGP101 antibody; mouse monoclonal antibody IGP101
